B1: library; numbered along this chain (parent)
chain: MAAAGGARLLRAASAVLGGPAGRWLHHAGSRAGSSGLLRNRGPGGSAEASRSLSVSARARSSSEDKITVHFINRDGETLTTKGKVGDSLLDVVVENNLDIDGFGACEGTLACSTCHLIFEDHIYEKLDAITDEENDMLDLAYGLTDRSRLGCQICLTKSMDNMTVRVPETVADARQSIDVGKTS

Variants of: B1
Assay: scaled log2 fold change in cell abundance, elesclomol vs control (0 = silent mean, 1 = nonsense mean) (scaled log2 ratio); higher = higher viability under elesclomol (loss of FDX1 cuproptosis function)
Details: glucose 10 mM
Procedure: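 Deep mutational scan of full-length human FDX1: a pooled saturation-mutagenesis ORF library (every residue 2-184 mutated to all 19 amino acids plus stop, and silent codons where available) was expressed by lentivirus in FDX1-knockout ABC1 (14 days) or HEK293T (11 days) cells grown with elesclomol (ES) or DMSO control. Variant abundance came from ORF sequencing. The log2 fold change (ES vs control, mean of duplicates) was centred on the silent-variant mean (0) and scaled to the nonsense-variant mean (1). Higher values mean greater viability under ES, i.e. loss of FDX1 function in cuproptosis.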

[1] = with ABC1 FDX1 KO, elesclomol 5 nM, 14 days
[2] = with HEK293T FDX1 KO, elesclomol 40 nM, 11 days
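Also: variant abundance is its share of total variant reads in each endpoint sample, from next-generation sequencing of the integrated ORF PCR-amplified out of genomic DNA.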

| Variant | scaled log2 fold change [1] | scaled log2 fold change [2] |
| --- | --- | --- |
| S56C | -0.222 | -0.162 |
| S56Y | -0.541 | 0.934 |
| S56P | 0.19 | – |
| S56W | -0.00445 | 0.0272 |
| S56E | 0.234 | 0.0723 |
| S56V | 0.301 | -0.368 |
| S56Q | -0.214 | 0.782 |
| S56D | -0.745 | 0.383 |
| S56M | -0.109 | 0.0191 |
| S56N | 0.0549 | 1.09 |
| S56G | -1.11 | 0.888 |
| S56R | 0.43 | – |
| S56H | 0.238 | 0.979 |
| S56F | 0.177 | – |
| S56I | -0.125 | -0.305 |
| S56T | 0.0393 | 1.19 |
| S56K | -0.052 | 0.357 |
| S56A | 0.574 | – |
| S56L | 0.557 | 1.06 |
| S52R | 0.143 | -1.18 |
| S52Y | 0.285 | 0.0679 |
| S52T | -0.921 | -0.112 |
| S52V | -0.785 | -0.177 |
| S52W | 0.257 | -0.162 |

| Variant | scaled log2 fold change [1] | scaled log2 fold change [2] |
| --- | --- | --- |
| R58Y | -0.339 | -0.258 |
| R58I | -0.339 | 0.608 |
| R58T | -0.167 | -0.0694 |
| R58S | 0.12 | -0.815 |
| R58K | 0.151 | -0.231 |
| R58F | -0.105 | -0.229 |
| R58C | 0.0658 | -0.099 |
| R58L | -0.211 | 0.174 |
| R58M | 0.306 | -0.781 |
| R58A | 0.173 | 0.434 |
| R58E | -0.288 | -0.142 |
| R58D | -0.139 | -0.303 |
| R58P | 0.228 | 0.00503 |
| R58W | 0.133 | 0.3 |
| R58H | 0.4 | -0.194 |
| R58V | 0.434 | 1.47 |
| R58G | -0.484 | 0.743 |
| R58Q | 0.0532 | -0.891 |
| R58N | -0.417 | -0.0662 |
| A57D | 0.102 | -0.382 |
| A57G | -0.0446 | 1.2 |
| A57N | 0.029 | 0.245 |
| A57W | -0.231 | 0.0227 |
| A57H | 0.158 | -0.799 |

| Variant | scaled log2 fold change [1] | scaled log2 fold change [2] |
| --- | --- | --- |
| A57R | 0.224 | 0.591 |
| A57M | -0.0569 | -0.0232 |
| A57F | -0.681 | -0.202 |
| A57Y | -0.233 | 0.129 |
| A57K | 0.162 | -1.1 |
| A57V | -0.164 | 0.356 |
| A57L | -0.263 | 0.149 |
| A57C | 0.479 | – |
| A57E | -0.0705 | -0.933 |
| A57I | 0.296 | – |
| A57S | 0.247 | 0.0851 |
| A57Q | 0.12 | -0.354 |
| A57T | 0.0138 | -0.39 |
| L53Q | -0.164 | – |
| L53A | 0.205 | 0.346 |
| L53R | 0.0529 | -0.455 |
| L53V | 0.281 | -0.11 |
| L53N | 0.146 | – |
| L53P | 0.118 | – |
| L53T | 0.163 | -0.488 |
| L53K | 0.299 | 0.00452 |
| L53C | 0.0732 | -0.0888 |
| L53M | 0.133 | 0.406 |
| L53I | -1.25 | – |

| Variant | scaled log2 fold change [1] | scaled log2 fold change [2] |
| --- | --- | --- |
| L53E | 0.206 | -0.803 |
| L53W | 0.155 | 0.498 |
| L53D | -0.0291 | – |
| L53G | -0.239 | -1.17 |
| L53H | 0.262 | -0.0475 |
| L53F | 0.298 | -0.0243 |
| L53S | -0.175 | 0.73 |
| L53Y | -0.194 | -0.569 |
| V55N | -0.28 | 0.815 |
| V55I | 0.323 | 1.26 |
| V55C | 0.313 | 0.374 |
| V55S | 0.162 | -0.104 |
| V55M | 0.374 | 0.955 |
| V55P | -0.481 | 1.06 |
| V55G | 0.169 | -0.106 |
| V55T | 0.178 | -0.356 |
| V55H | 0.0403 | 1.23 |
| V55E | -0.307 | – |
| V55Y | 0.0351 | – |
| V55K | -0.469 | -0.443 |
| V55Q | 0.177 | -0.526 |
| V55F | 0.0901 | -0.339 |
| V55D | -0.0142 | – |
| V55R | 0.114 | 0.865 |

| Variant | scaled log2 fold change [1] | scaled log2 fold change [2] |
| --- | --- | --- |
| V55L | -0.283 | – |
| V55W | 0.0864 | -0.549 |
| D65G | 0.134 | -0.165 |
| D65E | -0.139 | 0.087 |
| D65Y | 0.323 | 0.288 |
| D65T | -0.192 | – |
| D65L | 0.175 | -0.119 |
| D65A | -0.0535 | -0.237 |
| D65K | -0.369 | -0.531 |
| D65N | -0.21 | 0.98 |
| D65Q | 0.0546 | 0.293 |
| D65C | 0.243 | -0.327 |
| D65R | -0.395 | -0.257 |
| D65W | 0.185 | 0.126 |
| D65P | -0.000175 | 0.99 |
| D65V | 0.161 | -0.27 |
| D65S | -0.464 | 0.216 |
| D65M | -0.334 | -0.318 |
| D65I | 0.277 | – |
| D65H | 0.192 | 0.0338 |
| D65F | -0.512 | -0.119 |
| E64R | -0.913 | 0.0821 |
| E64M | -0.109 | -0.0994 |
| E64T | 0.135 | -0.296 |

Source: the supplement of paper PMC12855868
